Reference: patent US20230272029A1, “CO-AGONISTS AT GLP-1 AND GIP RECEPTORS SUITABLE FOR ORAL DELIVERY” (Novo Nordisk A/S, priority 2020, published 2023)
Starred links: 1 amine or outer side, 2 acyl side, 3 side chain; linkers in the order of their positions; H or OH if unused. Non-standard residues stand in square brackets, D forms with d. Groups on a side chain read outwards from the residue. No end group written: not given here. *: point of attachment. C18 diacid = O=C(O)CCCCCCCCCCCCCCCCC(=O)*; γGlu = O=C(O)[C@H](CCC(=O)[*:2])N[*:1]; εLys = N[C@@H](CCCCN[*:1])C(=O)[*:2]; Aib = CC(C)(N)C(=O)O

T1: human GIP receptor (human, UniProt P48546 22-466)
T1 sequence (looked up): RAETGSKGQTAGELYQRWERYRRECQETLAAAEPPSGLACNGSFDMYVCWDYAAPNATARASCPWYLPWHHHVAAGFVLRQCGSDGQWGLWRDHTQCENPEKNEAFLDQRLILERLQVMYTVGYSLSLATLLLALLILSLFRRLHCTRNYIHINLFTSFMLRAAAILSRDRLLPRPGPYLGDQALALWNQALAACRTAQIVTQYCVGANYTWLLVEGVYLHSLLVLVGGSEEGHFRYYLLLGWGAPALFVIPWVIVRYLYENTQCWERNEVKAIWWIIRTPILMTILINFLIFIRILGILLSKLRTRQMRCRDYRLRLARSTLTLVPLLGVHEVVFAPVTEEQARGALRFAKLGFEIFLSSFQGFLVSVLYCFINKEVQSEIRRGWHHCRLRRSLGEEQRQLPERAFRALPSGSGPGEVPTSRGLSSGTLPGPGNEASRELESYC

B1: Compound No. 41 (peptide)
peptide: Y[Aib]EGTFTSDYSK([εLys-εLys-γGlu-C18 diacid])YLEEQAAREFINWLLAGGPSSGAPPPS-OH
modifications: N-terminus assumed
SMILES: CC[C@H](C)[C@H](NC(=O)[C@H](Cc1ccccc1)NC(=O)[C@H](CCC(=O)O)NC(=O)[C@H](CCCNC(=N)N)NC(=O)[C@H](C)NC(=O)[C@H](C)NC(=O)[C@H](CCC(N)=O)NC(=O)[C@H](CCC(=O)O)NC(=O)[C@H](CCC(=O)O)NC(=O)[C@H](CC(C)C)NC(=O)[C@H](Cc1ccc(O)cc1)NC(=O)[C@H](CCCCNC(=O)[C@@H](N)CCCCNC(=O)[C@@H](N)CCCCNC(=O)CC[C@H](NC(=O)CCCCCCCCCCCCCCCCC(=O)O)C(=O)O)NC(=O)[C@H](CO)NC(=O)[C@H](Cc1ccc(O)cc1)NC(=O)[C@H](CC(=O)O)NC(=O)[C@H](CO)NC(=O)[C@@H](NC(=O)[C@H](Cc1ccccc1)NC(=O)[C@@H](NC(=O)CNC(=O)[C@H](CCC(=O)O)NC(=O)C(C)(C)NC(=O)[C@@H](N)Cc1ccc(O)cc1)[C@@H](C)O)[C@@H](C)O)C(=O)N[C@@H](CC(N)=O)C(=O)N[C@@H](Cc1c[nH]c2ccccc12)C(=O)N[C@@H](CC(C)C)C(=O)N[C@@H](CC(C)C)C(=O)N[C@@H](C)C(=O)NCC(=O)NCC(=O)N1CCC[C@H]1C(=O)N[C@@H](CO)C(=O)N[C@@H](CO)C(=O)NCC(=O)N[C@@H](C)C(=O)N1CCC[C@H]1C(=O)N1CCC[C@H]1C(=O)N1CCC[C@H]1C(=O)N[C@@H](CO)C(=O)O
B2: Compound No. 42 (peptide)
peptide: Y[Aib]EGTFTSDYSIYLEEQAAREFINWLLAGGPSK([εLys-εLys-γGlu-C18 diacid])GAPPPS-OH
modifications: N-terminus assumed
SMILES: CC[C@H](C)[C@H](NC(=O)[C@H](Cc1ccccc1)NC(=O)[C@H](CCC(=O)O)NC(=O)[C@H](CCCNC(=N)N)NC(=O)[C@H](C)NC(=O)[C@H](C)NC(=O)[C@H](CCC(N)=O)NC(=O)[C@H](CCC(=O)O)NC(=O)[C@H](CCC(=O)O)NC(=O)[C@H](CC(C)C)NC(=O)[C@H](Cc1ccc(O)cc1)NC(=O)[C@@H](NC(=O)[C@H](CO)NC(=O)[C@H](Cc1ccc(O)cc1)NC(=O)[C@H](CC(=O)O)NC(=O)[C@H](CO)NC(=O)[C@@H](NC(=O)[C@H](Cc1ccccc1)NC(=O)[C@@H](NC(=O)CNC(=O)[C@H](CCC(=O)O)NC(=O)C(C)(C)NC(=O)[C@@H](N)Cc1ccc(O)cc1)[C@@H](C)O)[C@@H](C)O)[C@@H](C)CC)C(=O)N[C@@H](CC(N)=O)C(=O)N[C@@H](Cc1c[nH]c2ccccc12)C(=O)N[C@@H](CC(C)C)C(=O)N[C@@H](CC(C)C)C(=O)N[C@@H](C)C(=O)NCC(=O)NCC(=O)N1CCC[C@H]1C(=O)N[C@@H](CO)C(=O)N[C@@H](CCCCNC(=O)[C@@H](N)CCCCNC(=O)[C@@H](N)CCCCNC(=O)CC[C@H](NC(=O)CCCCCCCCCCCCCCCCC(=O)O)C(=O)O)C(=O)NCC(=O)N[C@@H](C)C(=O)N1CCC[C@H]1C(=O)N1CCC[C@H]1C(=O)N1CCC[C@H]1C(=O)N[C@@H](CO)C(=O)O
B3: Compound No. 40 (peptide)
peptide: Y[Aib]EGTFTSDYSK([εLys-εLys-γGlu-C18 diacid])LLEEQAAREFIEWLLAGGPSSGAPPPS-OH
modifications: N-terminus assumed
SMILES: CC[C@H](C)[C@H](NC(=O)[C@H](Cc1ccccc1)NC(=O)[C@H](CCC(=O)O)NC(=O)[C@H](CCCNC(=N)N)NC(=O)[C@H](C)NC(=O)[C@H](C)NC(=O)[C@H](CCC(N)=O)NC(=O)[C@H](CCC(=O)O)NC(=O)[C@H](CCC(=O)O)NC(=O)[C@H](CC(C)C)NC(=O)[C@H](CC(C)C)NC(=O)[C@H](CCCCNC(=O)[C@@H](N)CCCCNC(=O)[C@@H](N)CCCCNC(=O)CC[C@H](NC(=O)CCCCCCCCCCCCCCCCC(=O)O)C(=O)O)NC(=O)[C@H](CO)NC(=O)[C@H](Cc1ccc(O)cc1)NC(=O)[C@H](CC(=O)O)NC(=O)[C@H](CO)NC(=O)[C@@H](NC(=O)[C@H](Cc1ccccc1)NC(=O)[C@@H](NC(=O)CNC(=O)[C@H](CCC(=O)O)NC(=O)C(C)(C)NC(=O)[C@@H](N)Cc1ccc(O)cc1)[C@@H](C)O)[C@@H](C)O)C(=O)N[C@@H](CCC(=O)O)C(=O)N[C@@H](Cc1c[nH]c2ccccc12)C(=O)N[C@@H](CC(C)C)C(=O)N[C@@H](CC(C)C)C(=O)N[C@@H](C)C(=O)NCC(=O)NCC(=O)N1CCC[C@H]1C(=O)N[C@@H](CO)C(=O)N[C@@H](CO)C(=O)NCC(=O)N[C@@H](C)C(=O)N1CCC[C@H]1C(=O)N1CCC[C@H]1C(=O)N1CCC[C@H]1C(=O)N[C@@H](CO)C(=O)O
B4: Compound No. 30 (peptide)
peptide: Y[Aib]EGTFTSDYSILLEK([εLys-εLys-γGlu-C18 diacid])QAAHEFIEWLLAGGPSSGAPPPS-OH
modifications: N-terminus assumed
SMILES: CC[C@H](C)[C@H](NC(=O)[C@H](Cc1ccccc1)NC(=O)[C@H](CCC(=O)O)NC(=O)[C@H](Cc1c[nH]cn1)NC(=O)[C@H](C)NC(=O)[C@H](C)NC(=O)[C@H](CCC(N)=O)NC(=O)[C@H](CCCCNC(=O)[C@@H](N)CCCCNC(=O)[C@@H](N)CCCCNC(=O)CC[C@H](NC(=O)CCCCCCCCCCCCCCCCC(=O)O)C(=O)O)NC(=O)[C@H](CCC(=O)O)NC(=O)[C@H](CC(C)C)NC(=O)[C@H](CC(C)C)NC(=O)[C@@H](NC(=O)[C@H](CO)NC(=O)[C@H](Cc1ccc(O)cc1)NC(=O)[C@H](CC(=O)O)NC(=O)[C@H](CO)NC(=O)[C@@H](NC(=O)[C@H](Cc1ccccc1)NC(=O)[C@@H](NC(=O)CNC(=O)[C@H](CCC(=O)O)NC(=O)C(C)(C)NC(=O)[C@@H](N)Cc1ccc(O)cc1)[C@@H](C)O)[C@@H](C)O)[C@@H](C)CC)C(=O)N[C@@H](CCC(=O)O)C(=O)N[C@@H](Cc1c[nH]c2ccccc12)C(=O)N[C@@H](CC(C)C)C(=O)N[C@@H](CC(C)C)C(=O)N[C@@H](C)C(=O)NCC(=O)NCC(=O)N1CCC[C@H]1C(=O)N[C@@H](CO)C(=O)N[C@@H](CO)C(=O)NCC(=O)N[C@@H](C)C(=O)N1CCC[C@H]1C(=O)N1CCC[C@H]1C(=O)N1CCC[C@H]1C(=O)N[C@@H](CO)C(=O)O

Tests used:
[1] = biological target: T1, human GIP receptor; assay: cell-based or functional assay
[2] = biological target: human GLP-1 receptor (human, UniProt P43220 24-463); assay: cell-based or functional assay

Row | Binder | hGIPR, CRE Luc 0% HSA EC50 (pM) [1] [pM] | hGIPR, CRE Luc 1% HSA EC50 (pM) [1] [pM] | hGLP-1R, CRE Luc 0% HSA EC50 (pM) [2] [pM] | hGLP-1R, CRE Luc 1% HSA EC50 (pM) [2] [pM]
1 | B1 | 4.9 | 79.3 | 1.2 | 31.4
2 | B2 | 5.9 | 306 | 2.3 | 83.5
3 | B3 | 9.5 | 501 | 6.4 | 334
4 | B4 | 3.2 | 185 | 7.3 | 268
